Measurements: US7888089B2, “eNOS mutations useful for gene therapy and therapeutic screening” (Yale University, priority 1999, dated 2011)
Each block holds one molecule with its values, some of them ahead of it.

What was measured:
COS-7 cells = assay: NO release (NO2−, chemiluminescence) from transfected COS cells; assay type: cell-based; settings: for Akt dependent NO release / activation of NOS construct: NOS construct co-transfected with Akt; for NO2− accumulation on co-transfection with eNOS: Akt construct co-transfected with eNOS, FIG. 1A
Text: Cell Transfections: The bovine eNOS, human iNOS, rat nNOS cDNAs in pcDNA3 and HA-tagged wild-type Akt, Akt (K179M) or myr-Akt in pCMV6 were generated by standard cloning methods. The myr-nNOS in pcDNA3 was generated by PCR, incorporating a new amino terminus containing the eNOS N-myristoylation consensus site (MGNLKSVG, SEQ ID NO:1) fused in frame to the second amino acid of the nNOS coding sequence. […] Mutation of the putative Akt phosphorylation sites in eNOS were generated using the Quick Change site-directed mutagenesis kit (Stratagene) according to the manufacturers instructions. All mutants were verified by DNA sequencing. COS-7 cells were plated (100 mm dish) and transfected with the NOS (7.5-30 mg) and Akt (1 mg) plasmids using calcium phosphate. To balance all transfections, the expression vector for β-galactosidase cDNA was used. Twenty-four to forty-eight hours after transfection, the expression of appropriate proteins (40-80 mg) were confirmed by Western blot analysis using eNOS mAb (9D10, Zymed), HA mAb (12CA5, Boehringer Mannheim), iNOS pAb (Zymed Laboratories) or nNOS mAb (Zymed Laboratories).
NO release from transfected COS cells: 24-48 hrs after transfection, media was processed for the measurement of nitrite (NO2^−), the stable breakdown product of NO in aqueous solution, by NO specific chemiluminescence as described (Sessa et al., 1995). Media was deproteinized and samples containing NO2^− were refluxed in glacial acetic acid containing sodium iodide. […] In all experiments, NO2^− release was inhibitable by a NOS inhibitor. In addition, NO2^−-release from cells transfected with the β-galactosidase cDNA was subtracted to control for background levels of NO2^− found in serum or media. In some experiments, cGMP accumulation in COS was used as a bioassay for the production of NO as described.

Akt [1] = assay: In vitro kinase reaction with Akt immunoprecipitated from COS cells; assay type: biochemical; settings: immunoprecipitated kinase
Akt [2] = target: T1, Akt (Homo sapiens, UniProt P31749); assay: In vitro phosphorylation of purified eNOS by recombinant Akt; assay type: biochemical; settings: FIG. 2D
T1 construct: host or cells: baculovirus-infected SF9 cells (Akt); peptides synthesized at the W. M. Keck Biotechnology Resource Center
Description: In experiments examining the in vitro phosphorylation of wild-type and mutant eNOS, recombinant Akt (1 mg) purified from baculovirus infected SF9 cells, was incubated with wild-type or S1179A eNOS (2.4 mg, purified from E. coli) using essentially the same conditions as above. Proteins were resolved by SDS-PAGE and ^32P incorporation and the amount of protein determined by Coomassie staining as above.

eNOS = assay: NOS activity (3H-L-arginine to 3H-L-citrulline) in COS cell lysates; assay type: biochemical, bovine; settings: COS cells transfected with eNOS only, n=3
Text: NOS activity assays: The conversion of ^3H-L-arginine to ^3H-L-citrulline was used to determine NOS activity in COS cell or endothelial cell lysates as previously described by Garcia-Cardena et al. (1998).

Akt [3] = assay: 32P phosphorylation of eNOS in intact transfected COS cells; assay type: cell-based; settings: eNOS/Akt transfected COS cells; wortmannin 500 nM
Description: Phosphorylation studies in vivo and in vitro: For in vivo phosphorylation studies, COS cells were transfected with the cDNAs for wild-type or S635, 1179A eNOS and HA-Akt overnight. 36 hrs after transfection, cells were placed into dialyzed serum replete, phosphate-free Dulbecco's minimum essential medium supplemented with 80 μCi/ml of ^32P orthophosphoric acid for 3 hr. Some cells were pretreated with wortmannin (500 nM) in the phosphate-free media for 1 hr and during the labeling.

T1 sequence (P31749 whole entry): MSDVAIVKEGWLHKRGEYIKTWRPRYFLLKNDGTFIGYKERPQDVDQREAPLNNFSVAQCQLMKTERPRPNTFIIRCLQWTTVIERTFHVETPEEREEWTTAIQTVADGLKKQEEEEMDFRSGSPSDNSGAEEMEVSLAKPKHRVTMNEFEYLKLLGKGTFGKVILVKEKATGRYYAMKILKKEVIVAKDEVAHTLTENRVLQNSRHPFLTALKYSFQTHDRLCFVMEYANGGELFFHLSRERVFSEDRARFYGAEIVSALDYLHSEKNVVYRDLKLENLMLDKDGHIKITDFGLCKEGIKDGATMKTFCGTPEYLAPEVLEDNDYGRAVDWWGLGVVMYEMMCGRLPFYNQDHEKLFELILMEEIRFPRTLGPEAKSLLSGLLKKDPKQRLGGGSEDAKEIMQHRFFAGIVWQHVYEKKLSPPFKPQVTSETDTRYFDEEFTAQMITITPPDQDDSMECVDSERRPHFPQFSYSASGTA

Molecule: nNOS: rat neuronal NOS [reference compound]
- Akt dependent NO release / activation of NOS construct (COS-7 cells): did not result in a further increase in NO release

Molecule: myr-nNOS: nNOS with new amino terminus containing the eNOS N-myristoylation consensus site (MGNLKSVG)
- Akt dependent NO release / activation of NOS construct (COS-7 cells): results in Akt stimulation of nNOS

Molecule: wild-type Akt: HA-tagged wild-type Akt (protein kinase B) [reference compound]
- NO2− accumulation on co-transfection with eNOS (COS-7 cells): markedly enhanced

Molecule: iNOS: human inducible NOS [reference compound]
- Akt dependent NO release / activation of NOS construct (COS-7 cells): did not result in a further increase in NO release

Molecule: kinase inactive Akt: kinase inactive Akt (K179M) [reference compound]
- histone or eNOS phosphorylation by Akt variant (Akt [1]): did not significantly increase histone or eNOS phosphorylation
- NO2− accumulation on co-transfection with eNOS (COS-7 cells): not

B1: G2A eNOS: myristoylation, palmitoylation defective mutant of eNOS (protein)
chain: ANLKSVGQEPGPPCGLGLGLGLGLCGKQGPASPAPEPSRAPAPATPHAPDHSPAPNSPTLTRPPEGPKFPRVKNWELGSITYDTLCAQSQQDGPCTPRCCLGSLVLPRKLQTRPSPGPPPAEQLLSQARDFINQYYSSIKRSGSQAHEERLQEVEAEVASTGTYHLRESELVFGAKQAWRNAPRCVGRIQWGKLQVFDARDCSSAQEMFTYICNHIKYATNRGNLRSAITVFPQRAPGRGDFRIWNSQLVRYAGYRQQDGSVRGDPANVEITELCIQHGWTPGNGRFDVLPLLLQAPDEAPELFVLPPELVLEVPLEHPTLEWFAALGLRWYALPAVSNMLLEIGGLEFSAAPFSGWYMSTEIGTRNLCDPHRYNILEDVAVCMDLDTRTTSSLWKDKAAVEINLAVLHSFQLAKVTIVDHHAATVSFMKHLDNEQKARGGCPADWAWIVPPISGSLTPVFHQEMVNYILSPAFRYQPDPWKGSATKGAGITRKKTFKEVANAVKISASLMGTLMAKRVKATILYASETGRAQSYAQQLGRLFRKAFDPRVLCMDEYDVVSLEHEALVLVVTSTFGNGDPPENGESFAAALMEMSGPYNSSPRPEQHKSYKIRFNSVSCSDPLVSSWRRKRKESSNTDSAGALGTLRFCVFGLGSRAYPHFCAFARAVDTRLEELGGERLLQLGQGDELCGQEEAFRGWAKAAFQASCETFCVGEEAKAAAQDIFSPKRSWKRQRYRLSTQAEGLQLLPGLIHVHRRKMFQATVLSVENLQSSKSTRATILVRLDTAGQEGLQYQPGDHIGICPPNRPGLVEALLSRVEDPPPPTESVAVEQLEKGSPGGPPPSWVRDPRLPPCTLRQALTFFLDITSPPSPRLLRLLSTLAEEPSEQQELETLSQDPRRYEEWKWFRCPTLLEVLEQFPSVALPAPLLLTQLPLLQPRYYSVSSAPNAHPGEVHLTVAVLAYRTQDGLGPLHYGVCSTWLSQLKTGDPVPCFIRGAPSFRLPPDPYVPCILVGPGTGIAPFRGFWQERLHDIESKGLQPAPMTLVFGCRCSQLDHLYRDEVQDAQERGVFGRVLTAFSREPDSPKTYVQDILRTELAAEVHRVLCLERGHMFVCGDVTMATSVLQTVQRILATEGDMELDEAGDVIGVLRDQQRYHEDIFGLTLRTQEVTSRIRTQSFSLQERHLRGAVPWAFDPPGPDTPGP
- Akt dependent NO release / activation of NOS construct (COS-7 cells): did not activate

- Akt-dependent phosphorylation compared to the wild-type protein (Akt [2]): markedly reduces
B2: S1179A: bovine eNOS with serine 1179 mutated to alanine (protein)
chain: GNLKSVGQEPGPPCGLGLGLGLGLCGKQGPASPAPEPSRAPAPATPHAPDHSPAPNSPTLTRPPEGPKFPRVKNWELGSITYDTLCAQSQQDGPCTPRCCLGSLVLPRKLQTRPSPGPPPAEQLLSQARDFINQYYSSIKRSGSQAHEERLQEVEAEVASTGTYHLRESELVFGAKQAWRNAPRCVGRIQWGKLQVFDARDCSSAQEMFTYICNHIKYATNRGNLRSAITVFPQRAPGRGDFRIWNSQLVRYAGYRQQDGSVRGDPANVEITELCIQHGWTPGNGRFDVLPLLLQAPDEAPELFVLPPELVLEVPLEHPTLEWFAALGLRWYALPAVSNMLLEIGGLEFSAAPFSGWYMSTEIGTRNLCDPHRYNILEDVAVCMDLDTRTTSSLWKDKAAVEINLAVLHSFQLAKVTIVDHHAATVSFMKHLDNEQKARGGCPADWAWIVPPISGSLTPVFHQEMVNYILSPAFRYQPDPWKGSATKGAGITRKKTFKEVANAVKISASLMGTLMAKRVKATILYASETGRAQSYAQQLGRLFRKAFDPRVLCMDEYDVVSLEHEALVLVVTSTFGNGDPPENGESFAAALMEMSGPYNSSPRPEQHKSYKIRFNSVSCSDPLVSSWRRKRKESSNTDSAGALGTLRFCVFGLGSRAYPHFCAFARAVDTRLEELGGERLLQLGQGDELCGQEEAFRGWAKAAFQASCETFCVGEEAKAAAQDIFSPKRSWKRQRYRLSTQAEGLQLLPGLIHVHRRKMFQATVLSVENLQSSKSTRATILVRLDTAGQEGLQYQPGDHIGICPPNRPGLVEALLSRVEDPPPPTESVAVEQLEKGSPGGPPPSWVRDPRLPPCTLRQALTFFLDITSPPSPRLLRLLSTLAEEPSEQQELETLSQDPRRYEEWKWFRCPTLLEVLEQFPSVALPAPLLLTQLPLLQPRYYSVSSAPNAHPGEVHLTVAVLAYRTQDGLGPLHYGVCSTWLSQLKTGDPVPCFIRGAPSFRLPPDPYVPCILVGPGTGIAPFRGFWQERLHDIESKGLQPAPMTLVFGCRCSQLDHLYRDEVQDAQERGVFGRVLTAFSREPDSPKTYVQDILRTELAAEVHRVLCLERGHMFVCGDVTMATSVLQTVQRILATEGDMELDEAGDVIGVLRDQQRYHEDIFGLTLRTQEVTSRIRTQAFSLQERHLRGAVPWAFDPPGPDTPGP
- NOS activity in lysates (eNOS): 71.9±2.9 pmol L-citrulline generated/mg protein
- Akt dependent NO release / activation of NOS construct (COS-7 cells): abolishes Akt dependent activation of eNOS

B3: S635, 1179A: double serine mutant of eNOS, serines 635 and 1179 mutated to alanine (protein)
chain: GNLKSVGQEPGPPCGLGLGLGLGLCGKQGPASPAPEPSRAPAPATPHAPDHSPAPNSPTLTRPPEGPKFPRVKNWELGSITYDTLCAQSQQDGPCTPRCCLGSLVLPRKLQTRPSPGPPPAEQLLSQARDFINQYYSSIKRSGSQAHEERLQEVEAEVASTGTYHLRESELVFGAKQAWRNAPRCVGRIQWGKLQVFDARDCSSAQEMFTYICNHIKYATNRGNLRSAITVFPQRAPGRGDFRIWNSQLVRYAGYRQQDGSVRGDPANVEITELCIQHGWTPGNGRFDVLPLLLQAPDEAPELFVLPPELVLEVPLEHPTLEWFAALGLRWYALPAVSNMLLEIGGLEFSAAPFSGWYMSTEIGTRNLCDPHRYNILEDVAVCMDLDTRTTSSLWKDKAAVEINLAVLHSFQLAKVTIVDHHAATVSFMKHLDNEQKARGGCPADWAWIVPPISGSLTPVFHQEMVNYILSPAFRYQPDPWKGSATKGAGITRKKTFKEVANAVKISASLMGTLMAKRVKATILYASETGRAQSYAQQLGRLFRKAFDPRVLCMDEYDVVSLEHEALVLVVTSTFGNGDPPENGESFAAALMEMSGPYNSSPRPEQHKSYKIRFNSVSCSDPLVSSWRRKRKEASNTDSAGALGTLRFCVFGLGSRAYPHFCAFARAVDTRLEELGGERLLQLGQGDELCGQEEAFRGWAKAAFQASCETFCVGEEAKAAAQDIFSPKRSWKRQRYRLSTQAEGLQLLPGLIHVHRRKMFQATVLSVENLQSSKSTRATILVRLDTAGQEGLQYQPGDHIGICPPNRPGLVEALLSRVEDPPPPTESVAVEQLEKGSPGGPPPSWVRDPRLPPCTLRQALTFFLDITSPPSPRLLRLLSTLAEEPSEQQELETLSQDPRRYEEWKWFRCPTLLEVLEQFPSVALPAPLLLTQLPLLQPRYYSVSSAPNAHPGEVHLTVAVLAYRTQDGLGPLHYGVCSTWLSQLKTGDPVPCFIRGAPSFRLPPDPYVPCILVGPGTGIAPFRGFWQERLHDIESKGLQPAPMTLVFGCRCSQLDHLYRDEVQDAQERGVFGRVLTAFSREPDSPKTYVQDILRTELAAEVHRVLCLERGHMFVCGDVTMATSVLQTVQRILATEGDMELDEAGDVIGVLRDQQRYHEDIFGLTLRTQEVTSRIRTQAFSLQERHLRGAVPWAFDPPGPDTPGP
- NOS activity in lysates (eNOS): 80.8±23.2 pmol L-citrulline generated/mg protein
- Akt dependent phosphorylation of eNOS in intact cells (Akt [3]): abolished Akt dependent phosphorylation of eNOS
- Akt dependent NO release / activation of NOS construct (COS-7 cells): abolishes Akt dependent NO release
